From PMC3689846

Experiments:
Experiment in all cases: SPR
[1] = biological target: Core.HXB2 (core gp120 of HIV-1 strain HxB2, wild-type CD4 binding site) (HIV-1 strain HxB2)
[2] = biological target: eOD-GT6 (germline-targeting engineered outer domain of gp120) (HIV-1 strain HxB2)
[3] = biological target: Core.BaL-GT1 (germline-targeting variant of core gp120) (HIV-1 strain BaL (from the name))

Substance | Kd [1] [nM] | Kd [2] [nM] | Kd [3] [nM]
GL-VRC-CH31 (predicted germline precursor of VRC-CH31) (antibody) | > 100000 | – | –
GL-12A12 (predicted germline precursor of 12A12) (antibody) | > 100000 | – | –
PGV20 (mature) (antibody) | 19 | 6 | 4
GL-PGV20 (predicted germline precursor of PGV20) (antibody) | > 100000 | – | –
12A12 (mature) (antibody) | 6 | – | –
GL-NIH45-46 (predicted germline precursor of NIH45-46) (antibody) | – | – | > 100000
GL-3BNC60 (predicted germline precursor of 3BNC60) (antibody) | > 100000 | – | –
GL-PGV04 (predicted germline precursor of PGV04) (antibody) | > 100000 | – | > 100000
3BNC60 (mature) (antibody) | – | – | 4
GL-PGV19 (predicted germline precursor of PGV19) (antibody) | > 100000 | 19 | –
